Measurements as given in IntAct's records for PubMed 22333915.

B1: Transcription factor NRM1 (Saccharomyces cerevisiae), P53718 (parent)
chain: MSIMKQRLPLGEFSSSKINKLAIANIADASEPRNHGENNVGTVCLPSIKSLMVSPEVYENTKSLPVPLMRSSGGGMACASKSSCQDGISTKTTSRDYSELSKKLQIRLQFAYYKYKTKQTDKNFTDLKSKHSITRPSKVATHSKSEPLTRRRKLVLSQGHYKTPARSKIKTPSSICSHDNTSSFTSFRGVSESSSTTADMNVADTTTPIRNNINTKHSNSHNRTLYQRQETPTSIKAAKSLIHLFTSNQ

Variants of: B1
Details: with rad53_yeast RAD53, P22216
Sequence of rad53_yeast RAD53, P22216 (P22216 whole entry): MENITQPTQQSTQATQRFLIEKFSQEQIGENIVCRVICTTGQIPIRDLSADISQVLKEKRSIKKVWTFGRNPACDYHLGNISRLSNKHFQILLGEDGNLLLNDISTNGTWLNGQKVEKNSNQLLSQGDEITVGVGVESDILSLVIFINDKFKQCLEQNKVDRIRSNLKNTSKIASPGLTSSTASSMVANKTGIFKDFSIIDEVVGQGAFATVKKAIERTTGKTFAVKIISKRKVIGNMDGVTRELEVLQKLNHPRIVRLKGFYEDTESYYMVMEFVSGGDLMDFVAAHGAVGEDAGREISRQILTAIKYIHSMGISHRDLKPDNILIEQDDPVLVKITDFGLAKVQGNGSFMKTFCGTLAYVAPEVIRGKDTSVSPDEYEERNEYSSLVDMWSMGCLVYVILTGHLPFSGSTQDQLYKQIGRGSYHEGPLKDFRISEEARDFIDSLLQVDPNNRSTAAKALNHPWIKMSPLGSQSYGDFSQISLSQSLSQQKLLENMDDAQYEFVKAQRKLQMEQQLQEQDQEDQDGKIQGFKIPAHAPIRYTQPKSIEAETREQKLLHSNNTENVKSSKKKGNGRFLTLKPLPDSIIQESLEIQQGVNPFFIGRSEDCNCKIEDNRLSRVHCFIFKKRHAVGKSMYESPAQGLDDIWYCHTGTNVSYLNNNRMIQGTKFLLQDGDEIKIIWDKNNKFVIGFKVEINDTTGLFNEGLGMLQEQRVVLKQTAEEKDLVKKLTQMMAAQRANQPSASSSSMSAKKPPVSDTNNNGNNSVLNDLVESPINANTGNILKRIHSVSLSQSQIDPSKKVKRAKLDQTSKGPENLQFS
T42A;S47A;S145A;S240A was tested, and the “effect of a mutation on the interaction” value was “decreasing interaction”.
